Experiment [1] deals with T1, (GR)15: H-C(GR)15-OH.
T1 construct: synthetic, not coupled to BSA; also called poly-GR DPR protein peptide
T1 peptide: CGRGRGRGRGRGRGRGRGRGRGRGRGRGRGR
The experiment is described as follows: indirect ELISA, coated uncoupled peptide. (In an ELISA, binding on a coated surface is turned into a signal by an enzyme label.)

Experiment [2] addresses T2, BSA-coupled (GP)15 DPR protein peptide (bovine, conjugated via a bifunctional linker (SMCC) to bovine serum albumin).
T2 construct: also called BSA-(GP)15
The experiment is described as follows: indirect ELISA, BSA-coupled peptide coated, antibody titrated [also D00014 FIG. 3G]. The procedure:
(§1) In brief, dipeptide repeat proteins were synthesized and purified by Schafer-N(Copenhagen, Denmark): (GA)₁₅: H-CHHHHHH(GA)₁₅-OH; (GP)₁₅: H-C(GP)₁₅-OH; (GR)₁₅: H-C(GR)₁₅-OH; (PA)₁₅: H-C(PA)₁₅-OH; (PR)₁₅: H—C(PR)₁₅-OH. DPR protein peptides were then conjugated via a bifunctional linker (SMCC) to bovine serum albumin (BSA). 96-well microplates (Corning Incorporated, Corning, USA) were coated with BSA-coupled or -uncoupled dipeptide repeat protein peptides at a concentration of either 5 μg/ml or 20 μg/ml in coating buffer (15 mM Na₂CO₃, 35 mM NaHCO₃, pH 9.42). Non-specific binding sites were blocked for 1 h at room temperature with PBS/0.1% Tween®-20 containing 2% BSA (Sigma-Aldrich, Buchs, Switzerland). Primary antibodies were diluted to the indicated concentrations and incubated 1 h at room temperature, followed by incubation with a donkey anti-human IgG Fcγ-specific antibody conjugated with HRP (Jackson ImmunoResearch Laboratories, Inc., West Grove, USA). Binding was determined by measurement of HRP activity in a standard colorimetric assay. EC₅₀ values were estimated by non-linear regression using GraphPad Prism software (San Diego, USA).

Experiment [3] concerns the target T3, (GP)15: H-C(GP)15-OH.
T3 construct: synthetic, not coupled to BSA; also called poly-GP DPR protein peptide
T3 peptide: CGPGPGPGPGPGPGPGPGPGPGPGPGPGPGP
Nature of the experiment: indirect ELISA, uncoupled peptide coated, antibody titrated [also D00014 FIG. 3G]. Here is the method: as §1

The target of experiment [4] is T4, GP5: H-(GP)5HHHHHH-NH2.
T4 peptide: H-GPGPGPGPGPHHHHHH-NH2
Nature of the experiment: indirect ELISA, coated His-tagged peptide; indirect ELISA, peptide coated directly on the plate. An excerpt:
In brief, dipeptide repeat proteins were synthesized and purified by Schafer-N (Copenhagen, Denmark): GA₂₀: H-(GA)₂₀HHHHHH-NH₂; GA₁₀: H-(GA)₁₀HHHHHH-NH₂; GA₆: H-(GA)₆HHHHHH-NH₂; GA₅: H-(GA)₅HHHHHH-NH₂; GA₄: H-(GA)₄HHHHHH-NH₂; GA₃: H-(GA)₃HHHHHH-NH₂; GA₂: H-(GA)₂HHHHHH-NH₂; GP₂₀: H-(GP)₂₀HHHHHH-NH₂; GP₁₀: H-(GP)₁₀HHHHHH-NH₂; GP₆: H-(GP)₆HHHHHH-NH₂; GP₅: H-(GP)₅HHHHHH-NH₂; GP₄: H-(GP)₄HHHHHH-NH₂; GP₃: H-(GP)₃HHHHHH-NH₂; GP₂: H-(GP)₂HHHHHH-NH₂. GR₂₀: H-(GR)₂₀HHHHHH-NH₂; GR₁₀: H-(GR)₁₀HHHHHH-NH₂; GR₆: H-(GR)₆HHHHHH-NH₂; GR₅: H-(GR)₅HHHHHH-NH₂; GR₄: H-(GR)₄HHHHHH-NH₂; GR₃: H-(GR)₃HHHHHH-NH₂; GR₂: H-(GR)₂HHHHHH-NH₂; PA₂₀: H-(PA)₂₀HHHHHH-NH₂; PA₁₀: H-(PA)₁₀HHHHHH-NH₂; PA₆: H-(PA)₆HHHHHH-NH₂; PA₅: H-(PA)₅HHHHHH-NH₂; PA₄: H-(PA)₄HHHHHH-NH₂; PA₃: H-(PA)₃HHHHHH-NH₂; PA₂: H-(PA)₂HHHHHH-NH₂; PR₂₀: H-(PR)₂₀HHHHHH-NH₂; PR₁₀: H-(PR)₁₀HHHHHH-NH₂; PR₆: H-(PR)₆HHHHHH-NH₂; PR₅: H-(PR)₅HHHHHH-NH₂; PR₄: H-(PR)₄HHHHHH-NH₂; PR₃: H-(PR)₃HHHHHH-NH₂; PR₂: H-(PR)₂HHHHHH-NH₂. 96-well microplates (Corning Incorporated, Corning, USA) were coated with dipeptide repeat protein peptides at a concentration of 50 μg/ml in coating buffer (15 mM Na₂CO₃, 35 mM NaHCO₃, pH 9.42). Non-specific binding sites were blocked for 1 h at room temperature with PBS/0.1% Tween®-20 containing 2% BSA (Sigma-Aldrich, Buchs, Switzerland). Primary antibodies were diluted to the indicated concentrations and incubated 1 h at room temperature, followed by incubation with a donkey anti-human IgG Fcγ-specific antibody conjugated with HRP (Jackson ImmunoResearch Laboratories, Inc., West Grove, USA). Binding was determined by measurement of HRP activity in a standard colorimetric assay. EC₅₀ values were estimated by non-linear regression using GraphPad Prism software (San Diego, USA).

The target in experiment [5] is T5, (PR)15: H-C(PR)15-OH.
T5 construct: synthetic, not coupled to BSA; also called poly-PR DPR protein peptide
T5 peptide: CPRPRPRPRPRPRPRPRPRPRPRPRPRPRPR
Nature of the experiment: indirect ELISA, coated uncoupled peptide.

Experiment [6] addresses T2, BSA-coupled (GP)15 DPR protein peptide. The experiment is described as follows: indirect ELISA, BSA-coupled peptide coated, antibody titrated [also D00014 FIG. 3H]. The procedure:
as §1

T2 sequence (P02769 25-607 limits assumed, chain 2 of 2, one chain of several): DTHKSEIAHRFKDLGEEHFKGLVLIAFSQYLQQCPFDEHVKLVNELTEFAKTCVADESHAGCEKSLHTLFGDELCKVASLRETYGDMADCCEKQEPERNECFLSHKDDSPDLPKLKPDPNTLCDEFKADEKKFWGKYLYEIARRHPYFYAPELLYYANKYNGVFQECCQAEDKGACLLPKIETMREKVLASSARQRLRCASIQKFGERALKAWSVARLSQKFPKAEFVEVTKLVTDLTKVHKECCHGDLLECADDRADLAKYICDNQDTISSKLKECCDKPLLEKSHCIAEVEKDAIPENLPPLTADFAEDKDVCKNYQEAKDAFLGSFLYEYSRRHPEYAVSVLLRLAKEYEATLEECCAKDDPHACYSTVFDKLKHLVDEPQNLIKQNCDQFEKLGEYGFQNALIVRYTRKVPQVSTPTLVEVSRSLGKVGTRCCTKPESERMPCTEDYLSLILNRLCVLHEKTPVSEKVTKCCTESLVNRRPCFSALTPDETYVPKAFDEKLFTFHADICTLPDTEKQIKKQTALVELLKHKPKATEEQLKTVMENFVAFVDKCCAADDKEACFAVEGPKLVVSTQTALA

B1: NI-308.6B11 (antibody, V domains shown)
VH: EVQLVQSGAEVKRPGASVKVSCKVSGYTLTELSMHWVRQAPGKGLEWMGGFDPEDGETVYAQKFQGRVTMTEDTSTDTAYMELSSLRSEDTALYHCATYGSSWHWNEGNEGSYYFDYWGQGTLVTVSS
VL: CDIQMTQSPSSLSASVGDRVTITCQASQDISIYLNWYQQKPGKAPKLLIYDASNLETGVPSRFSGSGSGTDFTFTISGLQPEDVARYYCQQYDDLPITFGQGTRLEIK
notes: Recombinant complete human IgG1, kappa
A word on the EC50: it is the concentration at which the effect is half-maximal. The molecule B1 had an EC50 in experiment [1] of 0.94 nM.

B2: NI-308.5G2 (antibody, V domains shown)
VH: EVQLVQSGADLRNPGASVTVSCTASGYHFADNAINWLRQAPGQRLEWMGWINIYSGNTKYSQNFQGRVTFTRNTSASTAFMHLRSLRSEDTAVYFCARDPDSSGYYLPYFDYWGQGTLVTVSS
VL: DIQLTQSPDSLTLSLGERATINCKSSQSVFYNSNNKNYLAWYQQKPGQPPKLLMYWASTRESGVTDRFSGSGSGTDFTLTITNLQAEDVAVYYCQQFYSSPLTFGGGTKVEIK
notes: as for B1
Regarding B2, the concentration giving a half-maximal response (EC50) was 0.21 nM in experiment [2], 0.4 nM in experiment [3] and above 200 nM in experiment [4].

B3: NI-308.24E11 (antibody, V domains shown)
VH: QVQLQESGPGLVKPSETLSLTCTVSTTSLRSYFWSWIRQPPGKGLEWIGYVYYSGSTIYNPSLKNRVTISIDTSKNQFSLNLRSVTAADTAMYFCARGVPAETDARDFPPYYFDHWGQGTLVTVSS
VL: CDIQLTQSPSSLSASVGNRITFTCQASQDIRYYLNWYQQKPGKAPKLLIYDVSNLDTGVPPRFSGSGSGTNFTFTISSLQPEDIAVYYCQQYEGLPVTFGGGTKVEIK
notes: as for B1
Regarding B3, in experiment [5], it took 12.8 nM to reach a half-maximal effect (EC50).

B4: NI-308.46E9 (antibody, V domains shown)
VH: QVQLQESGPGLVKPSETLSLTCTVSGASISGSTYYWGWIRQPPGKGLEYIGRIYYSGSTYYNPSLKSRATISVDTSKNQLSLTLSSVTAADTAVYYCVRPFYAGSGNSPFDYWGQGTLVTVSS
VL: CEIVLTQSPATVSVSPGERATLSCRASQSVSTNLAWYQQKPGQPPRLLIYGASTRATGIPARFSGSGSGAEFTLTISSLQSEDFVVYYCQQYNNWPPAFGGGTKVEIK
notes: as for B1
Regarding B4, in experiment [6], the EC50 was determined as 12.1 nM.

For the origin of these results see patent US20200010567A1 (NEURIMMUNE, published 2020).
